Values quoted from earlier work in publication PMC7212196.

Molecular target: soluble IL-6 receptor (Homo sapiens) (UniProt P08887)
UniProt P08887, sequence (P08887 20-355): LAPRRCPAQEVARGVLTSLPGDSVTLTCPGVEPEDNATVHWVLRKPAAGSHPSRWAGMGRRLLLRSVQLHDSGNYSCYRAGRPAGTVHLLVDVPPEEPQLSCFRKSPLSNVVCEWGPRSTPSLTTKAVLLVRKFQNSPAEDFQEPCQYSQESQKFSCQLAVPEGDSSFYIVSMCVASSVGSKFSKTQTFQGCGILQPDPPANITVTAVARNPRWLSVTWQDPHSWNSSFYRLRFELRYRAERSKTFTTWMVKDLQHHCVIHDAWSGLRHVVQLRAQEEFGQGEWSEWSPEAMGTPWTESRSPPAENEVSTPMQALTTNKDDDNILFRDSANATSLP

IL-6, sequence (P05231 30-212): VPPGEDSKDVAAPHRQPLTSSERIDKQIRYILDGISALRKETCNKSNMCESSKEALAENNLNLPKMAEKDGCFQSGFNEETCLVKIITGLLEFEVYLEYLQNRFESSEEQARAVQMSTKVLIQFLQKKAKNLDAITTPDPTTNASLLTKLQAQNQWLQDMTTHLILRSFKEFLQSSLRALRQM

Kd: 5 nM
Substance: IL-6 (from UniProt P05231)
